In US20160272683A1 (Novo Nordisk, published 2016) one finds IC50 data, which are given here for 9 molecules.

Numbered stars: 1 amine (or outer) side, 2 acyl side, 3 side chain; on linkers, the order of the positions; unused ones are H or OH. * marks the point of attachment. C20 diacid = O=C(O)CCCCCCCCCCCCCCCCCCC(=O)*; γGlu = O=C(O)[C@H](CCC(=O)[*:2])N[*:1]

For the experiment, the target named is T1, human calcitonin receptor (human, UniProt P30988 25-474).
T1 construct: whole, on cells; also called hCT-R; hCTR
T1 sequence (looked up): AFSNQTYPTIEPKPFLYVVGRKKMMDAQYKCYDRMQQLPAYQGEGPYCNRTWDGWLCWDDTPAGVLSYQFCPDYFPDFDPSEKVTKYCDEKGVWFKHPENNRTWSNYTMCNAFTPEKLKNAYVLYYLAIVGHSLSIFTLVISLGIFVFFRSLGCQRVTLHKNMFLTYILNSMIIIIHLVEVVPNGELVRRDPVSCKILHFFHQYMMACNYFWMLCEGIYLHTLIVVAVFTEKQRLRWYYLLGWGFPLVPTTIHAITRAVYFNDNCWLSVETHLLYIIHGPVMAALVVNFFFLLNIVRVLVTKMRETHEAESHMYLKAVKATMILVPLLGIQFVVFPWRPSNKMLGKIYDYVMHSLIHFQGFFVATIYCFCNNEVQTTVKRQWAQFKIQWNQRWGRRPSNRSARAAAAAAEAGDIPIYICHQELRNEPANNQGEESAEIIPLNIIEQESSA
The experiment can be described thus: whole-cell competition vs 125I-human calcitonin (Assay VIIa). The method, boiled down:
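BHK tk'ts 13 cells stably co-expressing human calcitonin receptor and a CRE-luciferase reporter, seeded overnight at 37 °C. Bound tracer counted by scintillation after cold HBSS washes and NaOH/SDS lysis; IC₅₀ from one-site competition fit taken as receptor affinity.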

B1: [N-terminal(C20 diacid-gGlu), des1, 12H, 25H, 30T, 31G, 32T]mimylin (peptide)
peptide: {C20 diacid-γGlu}-ASELSTAALGHLSAELHELATLPHTETGTGTP-NH2
SMILES: CC(C)C[C@H](NC(=O)[C@H](C)NC(=O)[C@H](C)NC(=O)[C@@H](NC(=O)[C@H](CO)NC(=O)[C@H](CC(C)C)NC(=O)[C@H](CCC(=O)O)NC(=O)[C@H](CO)NC(=O)[C@H](C)NC(=O)CC[C@H](NC(=O)CCCCCCCCCCCCCCCCCCC(=O)O)C(=O)O)[C@@H](C)O)C(=O)NCC(=O)N[C@@H](Cc1c[nH]cn1)C(=O)N[C@@H](CC(C)C)C(=O)N[C@@H](CO)C(=O)N[C@@H](C)C(=O)N[C@@H](CCC(=O)O)C(=O)N[C@@H](CC(C)C)C(=O)N[C@@H](Cc1c[nH]cn1)C(=O)N[C@@H](CCC(=O)O)C(=O)N[C@@H](CC(C)C)C(=O)N[C@@H](C)C(=O)N[C@H](C(=O)N[C@@H](CC(C)C)C(=O)N1CCC[C@H]1C(=O)N[C@@H](Cc1c[nH]cn1)C(=O)N[C@H](C(=O)N[C@@H](CCC(=O)O)C(=O)N[C@H](C(=O)NCC(=O)N[C@H](C(=O)NCC(=O)N[C@H](C(=O)N1CCC[C@H]1C(N)=O)[C@@H](C)O)[C@@H](C)O)[C@@H](C)O)[C@@H](C)O)[C@@H](C)O
notes: also called Ex. #93
Turning to B1, the IC50 (usually the concentration at which inhibition is half-maximal) came to 1.03 nM. Under {C20 diacid-γGlu}-ASELSTAALGRLSAELHELATYPRTETGSGSY-OH (also called Ex. #88) [[N-terminal(C20 diacid-gGlu), des1, 23Y, 30S, 31G, 33Y, C-terminal(-)]mimylin] stands 24.2 nM. With {C20 diacid-γGlu}-ASELSTAALGHLSAELHELATLPRTETGSGSP-NH2 (also called Ex. #72) [[N-terminal(C20 diacid-gGlu), des1, 12H, 30S, 31G]mimylin], the IC50 was found to be 0.438 nM.

B2: [N-terminal(C20 diacid-gGlu), des1, 23Y, 30S, 31G, 32A]mimylin (peptide)
peptide: {C20 diacid-γGlu}-ASELSTAALGRLSAELHELATYPRTETGSGAP-NH2
SMILES: CC(C)C[C@H](NC(=O)[C@H](C)NC(=O)[C@H](C)NC(=O)[C@@H](NC(=O)[C@H](CO)NC(=O)[C@H](CC(C)C)NC(=O)[C@H](CCC(=O)O)NC(=O)[C@H](CO)NC(=O)[C@H](C)NC(=O)CC[C@H](NC(=O)CCCCCCCCCCCCCCCCCCC(=O)O)C(=O)O)[C@@H](C)O)C(=O)NCC(=O)N[C@@H](CCCNC(=N)N)C(=O)N[C@@H](CC(C)C)C(=O)N[C@@H](CO)C(=O)N[C@@H](C)C(=O)N[C@@H](CCC(=O)O)C(=O)N[C@@H](CC(C)C)C(=O)N[C@@H](Cc1c[nH]cn1)C(=O)N[C@@H](CCC(=O)O)C(=O)N[C@@H](CC(C)C)C(=O)N[C@@H](C)C(=O)N[C@H](C(=O)N[C@@H](Cc1ccc(O)cc1)C(=O)N1CCC[C@H]1C(=O)N[C@@H](CCCNC(=N)N)C(=O)N[C@H](C(=O)N[C@@H](CCC(=O)O)C(=O)N[C@H](C(=O)NCC(=O)N[C@@H](CO)C(=O)NCC(=O)N[C@@H](C)C(=O)N1CCC[C@H]1C(N)=O)[C@@H](C)O)[C@@H](C)O)[C@@H](C)O
notes: also called Ex. #81
As to B2, the IC50 came to 4.93 nM.

B3: [N-terminal(C20 diacid-gGlu), des1, 12K, 23Y, 25K, 30S, 31G, 33Y]mimylin (peptide)
peptide: {C20 diacid-γGlu}-ASELSTAALGKLSAELHELATYPKTETGSGSY-NH2
SMILES: CC(C)C[C@H](NC(=O)[C@H](C)NC(=O)[C@H](C)NC(=O)[C@@H](NC(=O)[C@H](CO)NC(=O)[C@H](CC(C)C)NC(=O)[C@H](CCC(=O)O)NC(=O)[C@H](CO)NC(=O)[C@H](C)NC(=O)CC[C@H](NC(=O)CCCCCCCCCCCCCCCCCCC(=O)O)C(=O)O)[C@@H](C)O)C(=O)NCC(=O)N[C@@H](CCCCN)C(=O)N[C@@H](CC(C)C)C(=O)N[C@@H](CO)C(=O)N[C@@H](C)C(=O)N[C@@H](CCC(=O)O)C(=O)N[C@@H](CC(C)C)C(=O)N[C@@H](Cc1c[nH]cn1)C(=O)N[C@@H](CCC(=O)O)C(=O)N[C@@H](CC(C)C)C(=O)N[C@@H](C)C(=O)N[C@H](C(=O)N[C@@H](Cc1ccc(O)cc1)C(=O)N1CCC[C@H]1C(=O)N[C@@H](CCCCN)C(=O)N[C@H](C(=O)N[C@@H](CCC(=O)O)C(=O)N[C@H](C(=O)NCC(=O)N[C@@H](CO)C(=O)NCC(=O)N[C@@H](CO)C(=O)N[C@@H](Cc1ccc(O)cc1)C(N)=O)[C@@H](C)O)[C@@H](C)O)[C@@H](C)O
notes: also called Ex. #101
With B3, the IC50 was 0.628 nM.

B4: [N-terminal(C20 diacid-gGlu), des1, 21S, 23Y, 30S, 31G, 33Y]mimylin (peptide)
peptide: {C20 diacid-γGlu}-ASELSTAALGRLSAELHELSTYPRTETGSGSY-NH2
SMILES: CC(C)C[C@H](NC(=O)[C@H](C)NC(=O)[C@H](C)NC(=O)[C@@H](NC(=O)[C@H](CO)NC(=O)[C@H](CC(C)C)NC(=O)[C@H](CCC(=O)O)NC(=O)[C@H](CO)NC(=O)[C@H](C)NC(=O)CC[C@H](NC(=O)CCCCCCCCCCCCCCCCCCC(=O)O)C(=O)O)[C@@H](C)O)C(=O)NCC(=O)N[C@@H](CCCNC(=N)N)C(=O)N[C@@H](CC(C)C)C(=O)N[C@@H](CO)C(=O)N[C@@H](C)C(=O)N[C@@H](CCC(=O)O)C(=O)N[C@@H](CC(C)C)C(=O)N[C@@H](Cc1c[nH]cn1)C(=O)N[C@@H](CCC(=O)O)C(=O)N[C@@H](CC(C)C)C(=O)N[C@@H](CO)C(=O)N[C@H](C(=O)N[C@@H](Cc1ccc(O)cc1)C(=O)N1CCC[C@H]1C(=O)N[C@@H](CCCNC(=N)N)C(=O)N[C@H](C(=O)N[C@@H](CCC(=O)O)C(=O)N[C@H](C(=O)NCC(=O)N[C@@H](CO)C(=O)NCC(=O)N[C@@H](CO)C(=O)N[C@@H](Cc1ccc(O)cc1)C(N)=O)[C@@H](C)O)[C@@H](C)O)[C@@H](C)O
notes: also called Ex. #97
With B4, the IC50 is 0.307 nM.

B5: [N-terminal(C20 diacid-gGlu), des1, 30S, 31G, 33A]mimylin (peptide)
peptide: {C20 diacid-γGlu}-ASELSTAALGRLSAELHELATLPRTETGSGSA-NH2
SMILES: CC(C)C[C@H](NC(=O)[C@H](C)NC(=O)[C@H](C)NC(=O)[C@@H](NC(=O)[C@H](CO)NC(=O)[C@H](CC(C)C)NC(=O)[C@H](CCC(=O)O)NC(=O)[C@H](CO)NC(=O)[C@H](C)NC(=O)CC[C@H](NC(=O)CCCCCCCCCCCCCCCCCCC(=O)O)C(=O)O)[C@@H](C)O)C(=O)NCC(=O)N[C@@H](CCCNC(=N)N)C(=O)N[C@@H](CC(C)C)C(=O)N[C@@H](CO)C(=O)N[C@@H](C)C(=O)N[C@@H](CCC(=O)O)C(=O)N[C@@H](CC(C)C)C(=O)N[C@@H](Cc1c[nH]cn1)C(=O)N[C@@H](CCC(=O)O)C(=O)N[C@@H](CC(C)C)C(=O)N[C@@H](C)C(=O)N[C@H](C(=O)N[C@@H](CC(C)C)C(=O)N1CCC[C@H]1C(=O)N[C@@H](CCCNC(=N)N)C(=O)N[C@H](C(=O)N[C@@H](CCC(=O)O)C(=O)N[C@H](C(=O)NCC(=O)N[C@@H](CO)C(=O)NCC(=O)N[C@@H](CO)C(=O)N[C@@H](C)C(N)=O)[C@@H](C)O)[C@@H](C)O)[C@@H](C)O
notes: also called Ex. #65
Take B5: the IC50 was determined as 1.25 nM.

B6: [N-terminal(C20 diacid-gGlu), des1, 23Y, 30S, 31G]mimylin (peptide)
peptide: {C20 diacid-γGlu}-ASELSTAALGRLSAELHELATYPRTETGSGSP-NH2
SMILES: CC(C)C[C@H](NC(=O)[C@H](C)NC(=O)[C@H](C)NC(=O)[C@@H](NC(=O)[C@H](CO)NC(=O)[C@H](CC(C)C)NC(=O)[C@H](CCC(=O)O)NC(=O)[C@H](CO)NC(=O)[C@H](C)NC(=O)CC[C@H](NC(=O)CCCCCCCCCCCCCCCCCCC(=O)O)C(=O)O)[C@@H](C)O)C(=O)NCC(=O)N[C@@H](CCCNC(=N)N)C(=O)N[C@@H](CC(C)C)C(=O)N[C@@H](CO)C(=O)N[C@@H](C)C(=O)N[C@@H](CCC(=O)O)C(=O)N[C@@H](CC(C)C)C(=O)N[C@@H](Cc1c[nH]cn1)C(=O)N[C@@H](CCC(=O)O)C(=O)N[C@@H](CC(C)C)C(=O)N[C@@H](C)C(=O)N[C@H](C(=O)N[C@@H](Cc1ccc(O)cc1)C(=O)N1CCC[C@H]1C(=O)N[C@@H](CCCNC(=N)N)C(=O)N[C@H](C(=O)N[C@@H](CCC(=O)O)C(=O)N[C@H](C(=O)NCC(=O)N[C@@H](CO)C(=O)NCC(=O)N[C@@H](CO)C(=O)N1CCC[C@H]1C(N)=O)[C@@H](C)O)[C@@H](C)O)[C@@H](C)O
notes: also called Ex. #56
On to B6, for which the IC50 worked out at 2.94 nM.

B7: [N-terminal(C20 diacid-gGlu), des1, 25H, 30S, 31G]mimylin (peptide)
peptide: {C20 diacid-γGlu}-ASELSTAALGRLSAELHELATLPHTETGSGSP-NH2
SMILES: CC(C)C[C@H](NC(=O)[C@H](C)NC(=O)[C@H](C)NC(=O)[C@@H](NC(=O)[C@H](CO)NC(=O)[C@H](CC(C)C)NC(=O)[C@H](CCC(=O)O)NC(=O)[C@H](CO)NC(=O)[C@H](C)NC(=O)CC[C@H](NC(=O)CCCCCCCCCCCCCCCCCCC(=O)O)C(=O)O)[C@@H](C)O)C(=O)NCC(=O)N[C@@H](CCCNC(=N)N)C(=O)N[C@@H](CC(C)C)C(=O)N[C@@H](CO)C(=O)N[C@@H](C)C(=O)N[C@@H](CCC(=O)O)C(=O)N[C@@H](CC(C)C)C(=O)N[C@@H](Cc1c[nH]cn1)C(=O)N[C@@H](CCC(=O)O)C(=O)N[C@@H](CC(C)C)C(=O)N[C@@H](C)C(=O)N[C@H](C(=O)N[C@@H](CC(C)C)C(=O)N1CCC[C@H]1C(=O)N[C@@H](Cc1c[nH]cn1)C(=O)N[C@H](C(=O)N[C@@H](CCC(=O)O)C(=O)N[C@H](C(=O)NCC(=O)N[C@@H](CO)C(=O)NCC(=O)N[C@@H](CO)C(=O)N1CCC[C@H]1C(N)=O)[C@@H](C)O)[C@@H](C)O)[C@@H](C)O
notes: also called Ex. #73
As for B7, the IC50 was determined as 0.442 nM.
